The source of these data is patent publication US20010006793A1, “MODULATORS OF EUKARYOTIC CASPASES” (priority 1998, published 2001).

For the first test, the target named is T1, human caspase-8β (Homo sapiens, UniProt Q14790).
T1 construct: expressed in transfected cells; host or cells: Saccharomyces cerevisiae FY250, single-copy ARS/CEN vector YCpGAL1-caspase-8β-L, GAL1 promoter
T1 sequence (Q14790 1-464 isoform Q14790-2): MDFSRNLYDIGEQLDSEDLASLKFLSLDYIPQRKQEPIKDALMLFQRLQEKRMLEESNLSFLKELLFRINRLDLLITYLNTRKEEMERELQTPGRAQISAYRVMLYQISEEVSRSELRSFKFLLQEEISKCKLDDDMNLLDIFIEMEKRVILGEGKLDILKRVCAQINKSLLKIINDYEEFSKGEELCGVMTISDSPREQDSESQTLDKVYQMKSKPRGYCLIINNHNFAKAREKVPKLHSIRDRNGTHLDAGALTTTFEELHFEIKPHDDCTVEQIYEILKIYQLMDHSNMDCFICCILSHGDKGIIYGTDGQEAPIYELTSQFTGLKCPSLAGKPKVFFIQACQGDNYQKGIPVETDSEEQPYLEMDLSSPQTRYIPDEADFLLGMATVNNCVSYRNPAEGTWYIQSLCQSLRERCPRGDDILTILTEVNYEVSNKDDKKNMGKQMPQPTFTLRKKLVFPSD
Briefly: Yeast screening method: suppression of caspase-8β-induced lethality in S. cerevisiae FY250 double transformants on galactose medium. The class given is cell-based. As to conditions: FY250 double transformants, GAL1-driven expression, galactose-containing medium. The source says: The invention includes a screening method of determining whether a compound is a caspase modulator. […] A difference between the viability indicator of the first cell and the viability indicator of the second cell is an indication that the compound is a caspase modulator.
As described herein, the transformant expresses the caspase when an inducer of the inducible promoter of the caspase vector is provided to the caspase transformant. When the caspase transformant expresses the caspase, cytotoxicity ensues in the caspase transformant. If an inhibitor of the caspase is provided to the caspase transformant prior to the onset of cytotoxicity, the caspase transformant may be enabled to survive expression of the caspase or the onset of cytotoxicity may be delayed.
The gene encoding p35 was cloned into a yeast-based expression vector designated YCpGAL1-U (wherein U designates a URA3 selectable marker) to yield a YCpGAL1-p35-U inhibitor vector. Yeast cells were co-transformed with the inhibitor vector, YCpGAL1-p35-U, and with the caspase vector, YCpGAL1-caspase-8β-L, to yield a double transformant. Double transformants were plated on SC-leucine-uracil medium supplemented with dextrose to repress GAL1 promoter function. Serial ten-fold dilutions of individual double transformants grown in SC-leucine-uracil medium containing dextrose were prepared and spotted onto SC-leucine-uracil medium comprising dextrose or galactose.
Individual viable colonies of double transformant are isolated, and the test vector comprising the unknown cDNA is isolated.
The screening method used in this Example was performed as follows. A yeast double transformant was prepared by transforming S. cerevisiae strain FY250 with two yeast expression vectors. The first yeast expression vector comprised cDNA encoding a self-activating form of human caspase-8β operably linked to a GAL1 promoter and a LEU2 selectable marker. This first vector was a single copy vector and was designated YCpGAL1-caspase-8β-L. A plurality of second yeast expression vectors was used, each comprising a single random human cDNA sequence operably linked to a GAL1 promoter and a URA3 selectable marker. The cDNA sequences used to generate the plurality of second yeast expression vectors were obtained from a library of cDNAs prepared from human brain cells. The second vectors were multicopy vectors.
Double transformants were propagated on plates containing SC-leucine-uracil agar comprising dextrose. Colonies of double transformants were replica plated on plates containing medium comprising galactose, whereby expression of caspase-8β and of any product encoded by the cDNA of the second vector was induced. […] The second vector was recovered from individual colonies of double transformants which were able to survive on the galactose-containing medium and used, along with the first vector, to transform fresh FY250 cells. […] The identity of individual products encoded by the cDNA of individual second vectors was established by determining the nucleotide sequence of the cDNA and comparing the sequence with databases of known human gene sequences, including Genbank, the EST Database, and the Human Genome Database.
Take “Human Tat Binding Protein: product encoded by human brain cDNA; also known as TBP, SUG1, and 26S proteosomal p45 subunit ATPase”: the “identified as a caspase inhibitor (product of human brain cDNA suppressing caspase-8β-induced cell death)” value (“identified as a caspase inhibitor” for short) is on record as “caspase inhibitor”.

As to “Human Cytochrome b: product encoded by human brain cDNA, identified as caspase inhibitor”, the “identified as a caspase inhibitor” value is reported as “caspase inhibitor”.

On to “Human Synaptophysin p38: product encoded by human brain cDNA, identified as caspase inhibitor”, for which the “identified as a caspase inhibitor” value is on record as “caspase inhibitor”.

The test is the same for the next values; noted with them: Table 1 Caspase Modulators; identified using the screening method of the invention.
IETD/fmk [reference compound]: the “Caspase Inhibitor” value is listed as “✓”.

With “Human Tat Binding Protein: product encoded by human brain cDNA; also known as TBP, SUG1, and 26S proteosomal p45 subunit ATPase”, the “Caspase Inhibitor” value was “✓”. Same read-out and setting: in the case of z-VAD-fmk [reference compound] it was “✓”; in that of “Human Cytochrome b: product encoded by human brain cDNA, identified as caspase inhibitor”, “✓”. As to “Human Synaptophysin p38: product encoded by human brain cDNA, identified as caspase inhibitor”, the “Caspase Inhibitor” value is on record as “✓”.
